Test results: patent publication US20260243780A1

Legend:
[1] = target: SLC3A2, as used in the SPR measurement; test: SPR, concentration gradient binding curves
[2] = target: transferrin receptor protein 1 (TFRC), as used in the SPR measurement; test: SPR, concentration gradient binding curves

Kd [1]: 35.2 nM
Kd [2]: 571 nM
Substance: Cf48 small peptide (C4orf48), as used in the SPR measurement
